Laboratory results taken from article PMC10988696, “FLIM‐FRET‐based analysis of S100A11/annexin interactions in living cells” (FEBS Open Bio, 2024).
Like-named read-outs stand apart in the source and are kept apart here.

B1: S100A11-mCherry (natural protein, human, UniProt P31949 1-105, looked up)
chain: MAKISSPTETERCIESLIAVFQKYAGKDGYNYTLSKTEFLSFMNTELAAFTKNQKDPGVLDRMMKKLDTNSDGQLDFSEFLNLIGGLAMACHDSFLKAVPSQKRT
notes: human S100A11 wild type; cloned in pmCherry-N1 (EcoRI, BamHI); End of the tag read from the label S100A11-mCherry and the vector pmCherry-N1; also called S100A11wt; wild-type S100A11-mCherry; source: U2OS or HEK293T cells, transfected (calcium phosphate), in living cells; not shown: mCherry, C-terminal, kept

Experiments:
Assay in all cases: FRET or BRET; FLIM-FRET (EGFP donor lifetime, mCherry acceptor) in living U2OS cells co-transfected with both constructs, imaged in PBS 42-45 h after transfection, normal cytosolic calcium; E = 1 - tauDA/tauD from amplitude-weighted mean lifetimes
EGFP-ANXA2 = target: T1, EGFP-ANXA2 (human, UniProt P07355 1-339)
T1 construct: human annexin A2 (ANXA2) with the fluorescent protein tag in the altered orientation (EGFP-ANXA2); The cloning of this orientation is not described in the methods; source: U2OS or HEK293T cells, transfected (calcium phosphate), in living cells; not shown: EGFP, N-terminal, kept
T1 sequence (P07355 whole entry): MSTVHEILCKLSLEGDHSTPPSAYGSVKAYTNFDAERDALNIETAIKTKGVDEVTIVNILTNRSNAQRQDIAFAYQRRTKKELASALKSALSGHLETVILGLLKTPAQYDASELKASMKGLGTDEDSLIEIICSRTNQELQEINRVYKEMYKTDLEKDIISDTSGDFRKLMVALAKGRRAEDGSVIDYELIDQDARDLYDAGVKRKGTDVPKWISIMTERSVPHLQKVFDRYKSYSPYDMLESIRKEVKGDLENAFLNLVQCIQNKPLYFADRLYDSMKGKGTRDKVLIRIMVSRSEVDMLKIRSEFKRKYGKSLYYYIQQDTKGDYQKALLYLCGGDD

AnxA6-EGFP = target: T2, AnxA6-EGFP (rat, UniProt P48037 1-673); details: partners not purified
T2 construct: rat annexin A6; plasmid provided by C; End of the tag read from the label AnxA6-EGFP; also called rat annexin A6; source: U2OS cells, transfected (calcium phosphate), in living cells; not shown: EGFP, C-terminal, kept
T2 sequence (looked up): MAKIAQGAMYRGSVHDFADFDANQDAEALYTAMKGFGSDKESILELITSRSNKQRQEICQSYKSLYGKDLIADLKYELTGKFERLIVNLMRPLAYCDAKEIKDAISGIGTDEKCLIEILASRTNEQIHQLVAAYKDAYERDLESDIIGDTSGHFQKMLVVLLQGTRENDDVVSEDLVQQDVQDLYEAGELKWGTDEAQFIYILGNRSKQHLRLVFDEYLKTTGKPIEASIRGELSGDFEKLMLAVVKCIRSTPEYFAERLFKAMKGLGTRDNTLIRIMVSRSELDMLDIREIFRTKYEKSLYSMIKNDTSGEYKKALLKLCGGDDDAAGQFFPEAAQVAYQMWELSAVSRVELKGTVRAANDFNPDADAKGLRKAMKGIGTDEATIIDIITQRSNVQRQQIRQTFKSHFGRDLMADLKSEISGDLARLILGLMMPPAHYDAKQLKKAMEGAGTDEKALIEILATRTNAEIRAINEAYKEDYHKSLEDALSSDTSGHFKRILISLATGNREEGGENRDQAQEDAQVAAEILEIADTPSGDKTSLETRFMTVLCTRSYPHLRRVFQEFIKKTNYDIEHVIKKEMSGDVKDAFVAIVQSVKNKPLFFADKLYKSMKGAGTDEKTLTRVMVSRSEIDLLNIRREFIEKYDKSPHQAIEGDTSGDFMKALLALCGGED

ANXA1-EGFP = target: T3, ANXA1-EGFP (human, UniProt P04083 1-346); details: partners not purified
T3 construct: human annexin A1, PCR amplified from A431 cDNA; cloned in pEGFP-N1 (XhoI, BamHI); End of the tag read from the label ANXA1-EGFP and the vector pEGFP-N1; also called annexin A1; source: U2OS cells, transfected (calcium phosphate), in living cells; not shown: EGFP, C-terminal, kept
T3 sequence (looked up): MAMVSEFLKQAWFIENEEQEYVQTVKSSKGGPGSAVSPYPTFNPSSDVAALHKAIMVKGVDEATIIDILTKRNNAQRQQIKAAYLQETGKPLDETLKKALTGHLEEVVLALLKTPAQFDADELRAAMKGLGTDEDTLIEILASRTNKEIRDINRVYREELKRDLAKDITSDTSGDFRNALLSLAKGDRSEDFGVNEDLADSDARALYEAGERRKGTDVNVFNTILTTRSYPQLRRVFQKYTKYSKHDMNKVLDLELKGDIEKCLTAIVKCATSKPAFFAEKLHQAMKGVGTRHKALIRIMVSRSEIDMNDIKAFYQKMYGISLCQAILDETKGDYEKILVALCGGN

ANXA4-EGFP = target: T4, ANXA4-EGFP (human, UniProt P09525 1-319); details: partners not purified
T4 construct: human annexin A4, PCR amplified from A431 cDNA; cloned in pEGFP-N1 (HindIII, BamHI); also called annexin A4; source: U2OS cells, transfected (calcium phosphate), in living cells; not shown: EGFP, C-terminal, kept
T4 sequence (looked up): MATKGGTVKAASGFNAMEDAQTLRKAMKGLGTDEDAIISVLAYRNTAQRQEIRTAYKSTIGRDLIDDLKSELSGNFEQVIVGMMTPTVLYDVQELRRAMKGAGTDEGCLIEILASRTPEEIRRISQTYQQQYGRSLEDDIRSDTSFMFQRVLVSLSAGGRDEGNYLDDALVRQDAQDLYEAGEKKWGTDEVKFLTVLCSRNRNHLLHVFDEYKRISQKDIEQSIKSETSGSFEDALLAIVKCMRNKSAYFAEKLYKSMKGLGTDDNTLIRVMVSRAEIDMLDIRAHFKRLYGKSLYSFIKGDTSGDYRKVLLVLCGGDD

ANXA2-EGFP = target: T5, ANXA2-EGFP (human, UniProt P07355 1-339); details: partners not purified
T5 construct: human annexin A2 (ANXA2); EGFP is the FRET donor; also called annexin A2; source: U2OS cells, transfected (calcium phosphate), in living cells; not shown: EGFP, C-terminal, kept
T5 sequence (P07355 whole entry): as the sequence (P07355 whole entry) above

Molecule	FRET efficiency (E) (EGFP-ANXA2) [%]	FRET efficiency (E) (EGFP-ANXA2; partners not purified) [%]	FRET efficiency (E) (AnxA6-EGFP) [%]	FRET efficiency (E) (ANXA1-EGFP) [%]	FRET efficiency (E) (ANXA4-EGFP) [%]	FRET efficiency (E) (ANXA2-EGFP) [%]
S100A11ΔCa-mCherry (from UniProt P31949 1-105) (natural protein)	3.7					
B1		~9	~6	5.3	~5	7.5
